From article PMC9917425 (2023)

B1: α-dystroglycan lacking N-terminal domain (M-α-DGN KO) 317-653 (protein)
chain: TPVTAIGPPTTAIQEPPSRIVPTPTSPAIAPPTETMAPPVRDPVPGKPTVTIRTRGAIIQTPTLGPIQPTRVSEAGTTVPGQIRPTLTIPGYVEPTAVITPPTTTTKKPRVSTPKPATPSTDSSTTTTRRPTKKPRTPRPVPRVTTKAPITRLETASPPTRIRTTTSGVPRGGEPNQRPELKNHIDRVDAWVGTYFEVKIPSDTFYDNEDTTTDKLKLTLKLREQQLVGEKSWVQFNSNSQLMYGLPDSSHVGKHEYFMHATDKGGLSAVDAFEIHVHKRPQGDKAPARFKARLAGDPAPVVNDIHKKIALVKKLAFAFGDRNCSSITLQNITRGSI
modifications: short non-elongated matriglycan O-glycosylation
B2: α-dystroglycan (α-DG) (protein)
chain: HWPSEPSEAVRDWKNQLEASMHSVLSDFQEAVPTVVGIPDGTAVVGRSFRVSIPTDLIASSGEIIKVSAAGKEALPSWLHWDPHSHILEGLPLDTDKGVHYISVSAARLGANGSHVPQTSSVFSIEVYPEDHNEPQSVRAASSDPGEVVPSACAADEPVTVLMVILDADLTKMTPKQRIDLLNRMQSFSEVELHNMKLVPVVNNRLFDMSAFMAGPGNAKKVVENGALLSWKLGCSLNQNSVPDIRGVETPAREGAMSAQLGYPVVGWHIANKKPTLPKRLRRQIHATPTPVTAIGPPTTAIQEPPSRIVPTPTSPAIAPPTETMAPPVRDPVPGKPTVTIRTRGAIIQTPTLGPIQPTRVSEAGTTVPGQIRPTLTIPGYVEPTAVITPPTTTTKKPRVSTPKPATPSTDSSTTTTRRPTKKPRTPRPVPRVTTKAPITRLETASPPTRIRTTTSGVPRGGEPNQRPELKNHIDRVDAWVGTYFEVKIPSDTFYDNEDTTTDKLKLTLKLREQQLVGEKSWVQFNSNSQLMYGLPDSSHVGKHEYFMHATDKGGLSAVDAFEIHVHKRPQGDKAPARFKARLAGDPAPVVNDIHKKIALVKKLAFAFGDRNCSSITLQNITRG
B3: α-dystroglycan (α-DG) (protein)
chain: HWPSEPSEAVRDWKNQLEASMHSVLSDFQEAVPTVVGIPDGTAVVGRSFRVSIPTDLIASSGEIIKVSAAGKEALPSWLHWDPHSHILEGLPLDTDKGVHYISVSAARLGANGSHVPQTSSVFSIEVYPEDHNEPQSVRAASSDPGEVVPSACAADEPVTVLTVILDADLTKMTPKQRIDLLNRMQSFSEVELHNMKLVPVVNNRLFDMSAFMAGPGNAKKVVENGALLSWKLGCSLNQNSVPDIRGVETPAREGAMSAQLGYPVVGWHIANKKPTLPKRLRRQIHATPTPVTAIGPPTTAIQEPPSRIVPTPTSPAIAPPTETMAPPVRDPVPGKPTVTIRTRGAIIQTPTLGPIQPTRVSEAGTTVPGQIRPTLTIPGYVEPTAVITPPTTTTKKPRVSTPKPATPSTDSSTTTTRRPTKKPRTPRPVPRVTTKAPITRLETASPPTRIRTTTSGVPRGGEPNQRPELKNHIDRVDAWVGTYFEVKIPSDTFYDNEDTTTDKLKLTLKLREQQLVGEKSWVQFNSNSQLMYGLPDSSHVGKHEYFMHATDKGGLSAVDAFEIHVHKRPQGDKAPARFKARLAGDPAPVVNDIHKKIALVKKLAFAFGDRNCSSITLQNITRG
modifications: matriglycan O-glycosylation (full-length)

What follows are binders tested against laminin-111 (Mus musculus, UniProt P19137) (assay: solid-phase binding assay).

Binder | Kd
B1 | 2.32 nM
B2 | 1.9 nM
B3 | 0.966 nM
